Our source for the fold increase of the co-precipitate with PKM2 overexpressed against without PKM2 values is paper PMC4753445.

This test addresses AKT1 substrate 1 (AKT1S1), Flag-tagged (UniProt Q96B36). As to the kind of experiment: co-IP; 14-3-3 co-expressed with AKT1S1 (or 2SE) in HEK293T cells, with or without overexpressed PKM2 or PKM2 K270M; 14-3-3 co-immunoprecipitated with AKT1S1 detected by blot.

14-3-3, sequence (P63104 whole entry): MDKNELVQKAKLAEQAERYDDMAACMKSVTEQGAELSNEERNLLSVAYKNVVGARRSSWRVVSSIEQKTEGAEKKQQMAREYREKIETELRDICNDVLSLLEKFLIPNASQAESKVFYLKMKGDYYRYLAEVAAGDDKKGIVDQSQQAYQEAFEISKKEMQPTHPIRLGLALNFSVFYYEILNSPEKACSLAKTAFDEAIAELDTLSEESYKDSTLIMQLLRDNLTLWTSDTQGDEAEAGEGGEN

Turning to “14-3-3 (from UniProt P63104 1-245) (natural protein)”, the fold increase of the co-precipitate with PKM2 overexpressed against without PKM2 is above 3 fold.
